Where two headings read alike, the source gives them in different places. Each block holds one binder with its values, some of them ahead of it.
How the values were obtained:
[1] = target: T1, Human MerTK-mouse Fc fusion protein (human, UniProt Q12866 21-499, limits assumed); assay: FACS blocking: binding of human MerTK-mouse Fc to Jurkat cells overexpressing human Gas6, MFI (AF488)
T1 construct: also called hMerTK; Human MerTK-mouse Fe fusion protein
T1 sequence (looked up): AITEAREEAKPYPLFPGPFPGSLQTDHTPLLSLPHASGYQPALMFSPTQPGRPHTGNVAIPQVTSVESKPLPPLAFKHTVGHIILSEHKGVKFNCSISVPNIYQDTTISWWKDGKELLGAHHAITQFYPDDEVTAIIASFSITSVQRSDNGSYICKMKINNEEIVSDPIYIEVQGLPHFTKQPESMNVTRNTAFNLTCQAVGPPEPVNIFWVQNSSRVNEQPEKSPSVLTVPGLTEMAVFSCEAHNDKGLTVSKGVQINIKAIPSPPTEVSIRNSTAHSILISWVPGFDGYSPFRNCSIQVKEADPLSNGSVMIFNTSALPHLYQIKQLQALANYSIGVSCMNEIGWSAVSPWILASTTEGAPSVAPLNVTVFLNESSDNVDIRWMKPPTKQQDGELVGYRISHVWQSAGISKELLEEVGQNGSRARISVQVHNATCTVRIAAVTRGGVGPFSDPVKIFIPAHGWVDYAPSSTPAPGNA
Experimental: (§1) To evaluate the blocking effects of anti-hMerTK mAbs on hMerTK binding to its ligand hGas6, a receptor blocking assay was set-up. Briefly, Jurkat cells engineered to overexpress human Gas6 were added to the 96-well microplates at a density of 5×10⁴ cells per well. Human MerTK-mouse Fe fusion protein (50 μL/well, […]) and the MerTK chimeric antibodies with a 3-fold serial dilution starting from 120 nM at a volume of 50 μL were added to the 96-well plates and incubated at 4° C. for 30 mins. After washing with FACS buffer, the plates were incubated with diluted Alex Fluor 488 conjugated goat anti-mouse IgG antibody for 30 mins at 4′C. After washing, the plates were analyzed by QuantAnalyzer 16.

[2] = target: T2, human MerTK expressed on cells (human, UniProt Q12866 21-999); assay: FACS on CHO-K1 cells overexpressing human MerTK, MFI (PE)
T2 construct: whole, on cells; also called CHO-K1-hMerTK; CHO-K1-MerTK
T2 sequence (looked up): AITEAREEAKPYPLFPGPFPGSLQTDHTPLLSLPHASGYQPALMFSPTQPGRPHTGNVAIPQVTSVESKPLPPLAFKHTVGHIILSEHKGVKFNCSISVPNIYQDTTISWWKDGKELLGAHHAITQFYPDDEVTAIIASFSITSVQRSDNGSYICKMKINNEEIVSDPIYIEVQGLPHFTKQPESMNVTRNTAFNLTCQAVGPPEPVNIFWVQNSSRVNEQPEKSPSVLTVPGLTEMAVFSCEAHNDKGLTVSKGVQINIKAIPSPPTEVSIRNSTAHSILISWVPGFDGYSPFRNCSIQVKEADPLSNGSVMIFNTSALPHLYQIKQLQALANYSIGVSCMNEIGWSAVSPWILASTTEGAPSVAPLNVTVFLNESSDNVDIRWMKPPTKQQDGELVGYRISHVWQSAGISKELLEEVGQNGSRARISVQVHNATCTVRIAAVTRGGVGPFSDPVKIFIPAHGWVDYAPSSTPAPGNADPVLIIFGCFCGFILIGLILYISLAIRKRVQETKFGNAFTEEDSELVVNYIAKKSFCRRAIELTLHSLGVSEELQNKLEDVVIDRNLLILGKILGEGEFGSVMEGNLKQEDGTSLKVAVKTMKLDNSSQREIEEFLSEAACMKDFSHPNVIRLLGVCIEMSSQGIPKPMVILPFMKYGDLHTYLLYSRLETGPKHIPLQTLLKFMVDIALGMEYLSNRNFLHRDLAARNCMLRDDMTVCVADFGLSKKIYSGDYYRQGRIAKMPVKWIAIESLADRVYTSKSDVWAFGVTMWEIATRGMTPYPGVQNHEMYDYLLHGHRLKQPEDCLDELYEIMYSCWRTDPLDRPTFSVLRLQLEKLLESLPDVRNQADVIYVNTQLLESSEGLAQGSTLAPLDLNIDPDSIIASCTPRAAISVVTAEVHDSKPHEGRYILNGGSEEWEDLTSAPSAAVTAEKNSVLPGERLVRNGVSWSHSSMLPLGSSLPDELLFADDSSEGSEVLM
Experimental: To evaluate the binding property to the antigen expressed on the cells, the chimeric monoclonal antibodies were analyzed for their binding to human MerTK overexpressed on CHO-K1 cells by FACS. Briefly, human MerTK overexpressing CHO-K1 (CHO-K1-MerTK) cells were firstly incubated with 5-fold serially diluted mAbs starting at 20 nM at 4° C. for 1 hour. After washing with FACS buffer, the PE conjugated anti-human IgG-Fc secondary antibody was added to each well and incubated at 4° C., for 30 mins. The mean fluorescence intensity (MFI) of PE were evaluated by QuantAnalyzer 16.

[3] = target: T1, Human MerTK-mouse Fc fusion protein; assay: FACS blocking: binding of human MerTK-mouse Fc to Jurkat cells overexpressing human Gas6, MFI (AF488); remark: listed apart in the source
Experimental: as §1

human MerTK-his protein = target: T3, human MerTK-his protein (human, UniProt Q12866 21-505); assay: SPR Biacore T200, antibody captured on Protein A chip
T3 construct: extracellular domain; also called hMerTK-His; human MerTK protein
T3 sequence (looked up): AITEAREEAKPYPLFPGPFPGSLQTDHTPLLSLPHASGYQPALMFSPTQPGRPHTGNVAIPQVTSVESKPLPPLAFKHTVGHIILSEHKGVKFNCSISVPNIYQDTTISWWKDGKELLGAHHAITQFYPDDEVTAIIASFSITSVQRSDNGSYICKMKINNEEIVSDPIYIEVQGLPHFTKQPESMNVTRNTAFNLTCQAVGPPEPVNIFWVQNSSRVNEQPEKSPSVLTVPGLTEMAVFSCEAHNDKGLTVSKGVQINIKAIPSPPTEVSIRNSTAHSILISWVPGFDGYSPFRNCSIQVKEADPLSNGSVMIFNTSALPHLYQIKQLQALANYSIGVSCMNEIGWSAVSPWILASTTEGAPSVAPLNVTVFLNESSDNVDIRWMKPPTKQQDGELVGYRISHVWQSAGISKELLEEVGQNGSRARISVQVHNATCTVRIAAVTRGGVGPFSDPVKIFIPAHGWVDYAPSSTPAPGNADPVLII
Experimental: The binding affinity of the MerTK chimeric antibodies to human MerTK-his protein was tested with Biacroe™ T200 using a capture method. Briefly, the antibodies were captured with a Pro-A chip. […] The antigen was allowed to dissociate for 420-800 s. Data analysis was carried out using Biacore™ T200 evaluation software.

IC50 [1]: 856 pM
EC50 [2]: 170 pM
Top [2]: 5920 MFI (PE)
IC50 [3]: 836 pM
B1: h13B4.v16 benchmark antibody (antibody, V domains shown)
VH: EVQLVESGEGLVQPGGSLRLSCAASGFSLSSYAMGWVRQAPGKGLEYVGIINSYGNTYYANWAKGRFTISRDNSKNTVYLQMGSLRAEDMAVYYCARDPGVSSNLWGRGTLVTVSS
VL: DIQMTQSPSTLSASVGDRVTITCQASQNIYSGLAWYQQKPGKAPKLLIYGASKLASGVPSRFSGSGSGTEFTLTISSLQPDDFATYYCQATYYSSNSVAFGGGTKVEIK

IC50 [1]: 824 pM
EC50 [2]: 120 pM
Top [2]: 7290 MFI (PE)
Kd (human MerTK-his protein): 9850 pM
koff (human MerTK-his protein): 0.00287 s⁻¹
kon (human MerTK-his protein): 292000 M⁻¹ s⁻¹
B2: 252H9D5 chimeric monoclonal antibody (antibody, V domains shown)
VH: QVTLRESGPGILQPSQTLSLTCSFSGFSLNTFGMGVGWIRQSSGKGLKWLAHIWWDDDKFYNPALKSRLTISKDTSKNQVFLKIANVDTTDTATYYCARIEGGLPYYYDYWGQGTPLIVSS
VL: DIVMTQSQKIMSTSVGDRISVTCKASQIVGTNVVWYQQKPGQSPKALIYSTSYRYSGVPDRFTGSRSGTDFTLTISNVQSEDLANYFCQQYNSYPFTFGSGTKLEIK
